Assay results reported in patent publication US20230167458A1, “FORSKOLIN-INDUCIBLE PROMOTERS AND HYPOXIA-INDUCIBLE PROMOTERS” (ASKLEPIOS BIOPHARMACEUTICAL, INC., priority 2020, published 2023).

Assays:
[1] = system: HEK293-F; assay: Luciferase time course under hypoxia, transiently transfected HEK293-F; assay type: cell-based, human; conditions: hypoxia 5% oxygen, printed order RTV-015, SYNP-HYP-001, RTV-016, HYBT, HV3C
Description: The constructs were initially used to drive luciferase expression in HEK293-F and HEK293-T in hypoxia.
40 ml of cells were grown in a 250 ml vented Erlenmeyer flask (Sigma-Aldrich CLS431144) at 37° C., 20% O2, 8% CO2 with agitation at 100 rpm. Cells were seeded as described in the manufacturer's instructions (300,000 cells/ml). HEK293-F were obtained from Thermofisher, R79007.
(§1) One day before transfection, the cells were counted using a haemocytometer and split to 500,000 cells/ml.
On the day of transfection, the cells are seeded to 1,000,000 cells/ml in 500 μl of appropriate medium (Freestyle 293 expression medium, 12338002) in a 24 well plate. […] of DNA per well was then added to 10 μl of OptiMem medium (Thermofisher; 11058021) and incubated for 5 minutes at room temperature.
Concurrently, 0.625 μl of Max reagent (Thermofisher, 16447100) was made up to 10 μl by addition of OptiMem and incubated for 5 minutes at room temperature. After this incubation, both mixes were added to the same tube and incubated at room temperature for 25-30 minutes. […]
After transfection the cells were incubated for 24 hrs in normoxia conditions (20% oxygen) before being switched to a gas mix of 5% oxygen, 10% carbon dioxide and 85% nitrogen (hypoxia). […] Induction of the promoters was assessed by using luciferase activity after 3, 5 and 24 hrs in hypoxia.
Luciferase activity was measured using LARII (Dual Luciferase Reporter 1000 assay system, Promega, E1980).
Media was removed from the cells at the respective time point (0, 3, 5, 24 hrs after induction). […] 10 μl of supernatant was pipetted into white 96-well plate and luminescence measured by addition of 50 μl of LARII substrate.
β-galactosidase activity was measured as per manufacturer's instructions (Mammalian βGalactosidase Assay Kit, 75707/75710, Thermo Scientific) using 25 μl of lysate. […] The mixture was incubated at 37° C. for 30 min and absorbance measured at 405 nm.
Luciferase readouts were normalised to β-galactosidase to produce normalised relative luminometer units (RLUs).

[2] = system: CHO-GSK1SV; assay: Luciferase expression in normoxia vs 24 h hypoxia, transiently transfected CHO-GS suspension cells; assay type: cell-based, chinese hamster; conditions: for relative rank of promoter strength: transient CHO-GSK1SV, hypoxia; for inducibility after 24 hours in hypoxia (rank) / luciferase activity in normoxia: transient CHO_GS
Description: 40 ml of cells were grown in a 250 ml vented Erlenmeyer flask (Sigma-Aldrich CLS431144) at 37° C., 20% O2, 8% CO2 with agitation at 100 rpm. Cells were seeded as at 300,000 cells/ml.
as §1
On the day of transfection, the cells are seeded to 1,000,000 cells/ml in 500 μl of appropriate medium (Thermofisher, CD-CHO 10743029) in a 24 well plate. […] of DNA per well was then added to 10 μl of OptiMem medium (Thermofisher; 11058021) and incubated for 5 minutes at room temperature.
Concurrently, 0.625 μl of Freestyle Max reagent (Thermofisher, 16447100) was made up to 10 μl by addition of OptiMem and incubated for 5 minutes at room temperature. After this incubation, both mixes were added to the same tube and incubated at room temperature for 25-30 minutes. The DNA/Max reagent mix (20 μl/well) was then added directly to the cells and the cells incubated at 37 C, 8% CO2 with agitation at 100 rpm.
The transfected DNA was one of the vectors where the promoter constructs (RTV-015, HYBT, RTV-016, HV3C) or a control promoter (CMV-IE) were used to drive luciferase expression and β-galactosidase containing pcDNA6 plasmid. The β-galactosidase containing plasmid was used as internal control for transfection efficiency (Thermofisher, V22020).
After transfection the cells were incubated for 24 hrs in normoxic conditions (20% oxygen). Induction of the promoters was assessed by using luciferase activity after 24 hrs in normoxia or hypoxia (5% oxygen, 10% carbon dioxide and 85% nitrogen). Hypoxia was achieved by gas displacement in a sealed hypoxia chamber. Luciferase activity was measured as described above.

B1: RTV-015: synthetic hypoxia-inducible promoter, SEQ ID NO: 81; 5 HRE1 elements spaced by 40 bp and minimal promoter MP1 (nucleic acid)
DNA: ACGTGCGATGATGCGTAGCTAGTAGTGATGATGCGTAGCTAGTAGTACGTGCGATGATGCGTAGCTAGTAGTGATGATGCGTAGCTAGTAGTACGTGCGATGATGCGTAGCTAGTAGTGATGATGCGTAGCTAGTAGTACGTGCGATGATGCGTAGCTAGTAGTGATGATGCGTAGCTAGTAGTACGTGCTTGGTACCATCCGGGCCGGCCGCTTAAGCGACGCCTATAAAAAATAGGTTGCATGCTAGGCCTAGCGCTGCCAGTCCATCTTCGCTAGCCTGTGCTGCGTCAGTCCAGCGCTGCGCTGCGTAACGGCCGCC
modifications: Synp-RTV-015
notes: 5 HRE1 elements spaced by 40 bp and minimal promoter MP1
[1]
  relative rank of promoter activity: weakest
[2]
  relative rank of promoter strength: weakest
  inducibility after 24 hours in hypoxia (rank): lowest
  luciferase activity in normoxia: almost no luciferase activity

B2: HV3C: synthetic hypoxia-inducible promoter, SEQ ID NO: 85/87; 4 HRE3 elements and CMV minimal promoter (nucleic acid)
DNA: GATCTTTGTATTTAATTAAGACCTTGAGTACGTGCGTCTCTGCACGTATGGCGATTAAGACCTTGAGTACGTGCGTCTCTGCACGTATGGCGATTAAGACCTTGAGTACGTGCGTCTCTGCACGTATGGCGATTAAGACCTTGAGTACGTGCGTCTCTGCACGTATGGCGATTAATCCATATGCAGGTCTATATAAGCAGAGCTCGTTTAGTGAACCGTCAGATCGCCTAGATACGCCATCCACGCTGTTTTGACCTCCATAGAAGATCGCCACC
modifications: Synp-HV3C
notes: 4 HRE3 elements and CMV minimal promoter
[1]
  relative rank of promoter activity: strongest
[2]
  relative rank of promoter strength: strongest
  inducibility after 24 hours in hypoxia (rank): highest
  luciferase activity in normoxia: almost no luciferase activity
